Test results reported in patent publication US10053497B2, “Therapeutic epitopes and uses thereof” (OXFORD UNIVERSITY INNOVATION LIMITED, priority 2002, dated 2018).

Target: T1, tTG (UniProt P08587)
T1 construct: purchased Sigma T-5398
T1 sequence (P08587 1-690): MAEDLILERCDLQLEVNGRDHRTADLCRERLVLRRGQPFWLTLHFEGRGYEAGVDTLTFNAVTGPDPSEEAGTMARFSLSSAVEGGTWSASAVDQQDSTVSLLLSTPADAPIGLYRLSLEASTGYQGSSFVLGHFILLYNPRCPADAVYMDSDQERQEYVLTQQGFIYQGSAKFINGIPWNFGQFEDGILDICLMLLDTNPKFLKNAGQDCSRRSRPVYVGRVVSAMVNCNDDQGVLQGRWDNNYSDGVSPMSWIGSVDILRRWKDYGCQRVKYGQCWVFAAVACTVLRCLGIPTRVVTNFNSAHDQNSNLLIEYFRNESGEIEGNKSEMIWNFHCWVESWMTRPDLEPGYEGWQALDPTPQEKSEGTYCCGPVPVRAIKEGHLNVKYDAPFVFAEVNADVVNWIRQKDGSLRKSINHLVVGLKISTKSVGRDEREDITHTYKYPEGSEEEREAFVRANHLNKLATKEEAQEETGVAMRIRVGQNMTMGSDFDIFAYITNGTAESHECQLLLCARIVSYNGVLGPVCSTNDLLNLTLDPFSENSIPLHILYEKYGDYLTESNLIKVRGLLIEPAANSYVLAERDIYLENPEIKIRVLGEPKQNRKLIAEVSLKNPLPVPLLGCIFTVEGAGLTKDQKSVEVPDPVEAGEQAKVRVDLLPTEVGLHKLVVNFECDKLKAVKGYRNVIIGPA
Assay: Deamidation of A-gliadin 56-75 by tTG (HPLC, amino acid sequencing)
Assay type: biochemical, guinea pig
Conditions: tTG 50 μg/ml, 37° C., 2 hours
Procedure: A-gliadin 56-75 […] (SEQ ID NO:5) (0.1 μM) was incubated with tTG (50 μg/ml) at 37° C. for 2 hours. A single product was identified and purified by reverse phase HPLC. Amino acid analysis allowed % deamidation (Q→E) of each Gln residue in A-gliadin 56-75 (SEQ ID NO:5) attributable to tTG to be calculated (vertical axis).
Coeliac disease subjects following a gluten free diet, consumed 4 slices of gluten-containing bread (50 g/slice, Sainsbury's “standard white sandwich bread”) daily for 3 or 10 days. EMA was assessed the week before and up to two months after commencing the bread challenge. […] Peptides were assessed in duplicate wells, and Mycobacterium tuberculosis purified protein derivative (PPD RT49) (Serum Institute; Copenhagen, Denmark) (20 μg/ml) was included as a positive control in all assays. […] Digestion of gliadin was verified by SDS-PAGE and protein concentration assessed. α-Chymotrypsin-digested gliadin (640 μg/ml) and synthetic gliadin peptides (15-mers: 160 μg/ml, other peptides: 0.1 mM) were individually treated with tTG (Sigma; T-5398) ([…]) in PBS+CaCl2 1 mM for 2 h at 37° C. […] Deamidation of glutamyl residues was defined as the amount (pmol) of glutamate recovered expressed as a percent of the combined amount of glutamine and glutamate recovered in cycles 2, 4, 8, 10, 15 and 17 of the amino acid sequencing. […]

## LQLQPFPQPQLPYPQPQSFP [A-gliadin 56-75]
  Glutamine residue deamidated by tTG: Q65 (SEQ ID NO:5) was preferentially deamidated by tTG
